Assay results: paper PMC2670497

Key:
[1] = target: surface vimentin on HeLa cells (human (endogenous in HeLa)) (UniProt P08670); assay: flow cytometry on cells; cells transfected with pCMV-SPORT6-vimentin or mock-transfected, 24 hours later incubated with wildtype CPMV at 5x10^5 virions per cell for 2 hours; percent CPMV-positive cells; data not shown
[2] = target: vimentin expressed from pCMV-SPORT6-vimentin in MFT-16 vim-/- cells (UniProt P08670); assay: as above
[3] = target: purified recombinant vimentin protein (UniProt P08670); assay: ELISA; 1 ug vimentin immobilised overnight on Immulon 2 HB plates in 0.1 M KPO4 pH 7.0; varying molar concentrations of CPMV, 1 hour, room temperature; detected with anti-CPMV polyclonal antibody; avidity not ruled out

What does the source list for “Cowpea mosaic virus (CPMV) particles, wild type (complex)”?
percent of cells CPMV-positive [1]: 5.36%; percent of cells CPMV-positive [2]: 1.21%; EC50 [3]: 3.72 nM
